Experimental data from the Immune Epitope Database (IEDB).
One block for each sequence: values may come before it.

How the values were obtained:
HLA-B*08:01 = test: IEDB peptide-MHC binding, purified MHC/direct/fluorescence; filed as Kd, often an IC50 or EC50 that approximates it; ≥ and ≤ were set here for values at or beyond the usual limits of such assays
HLA-B*08:02 = test: as above; conditions: source organism: Influenza B virus (B/Beijing/184/93)
HLA-B*15:01 = test: as above
HLA-B*39:01 = test: as above
HLA-B*48:01 = test: as above
HLA-B*15:09 = test: as above
HLA-A*26:03 = test: as above
HLA-A*02:01 = test: as above
HLA-B*07:02 = test: as above
HLA-B*27:05 = test: as above
HLA-B*46:01 = test: as above
HLA-B*57:01 = test: as above
HLA-B*15:17 = test: as above
HLA-B*40:01 = test: as above
HLA-A*69:01 = test: as above
HLA-B*58:01 = test: as above
HLA-A*03:01 = test: as above
HLA-A*26:02 = test: as above
HLA-A*01:01 = test: as above
HLA-A*68:02 = test: as above
HLA-B*18:01 = test: as above; conditions: source organism: Influenza A virus (A/quail/Hong Kong/FY298/00(H9N2))
HLA-A*26:01 [1] = test: IEDB peptide-MHC binding, purified MHC/competitive/fluorescence; filed as Kd, often an IC50 or EC50 that approximates it; ≥ and ≤ were set here for values at or beyond the usual limits of such assays; conditions: source organism: Variola virus
HLA-A*30:01 = test: as above
HLA-A*31:01 = test: IEDB peptide-MHC binding, purified MHC/direct/fluorescence; filed as Kd, often an IC50 or EC50 that approximates it; ≥ and ≤ were set here for values at or beyond the usual limits of such assays
HLA-B*15:02 = test: as above
HLA-B*08:03 = test: as above
HLA-A*11:01 = test: as above
HLA-A*26:01 [2] = test: as above; conditions: source organism: Salmonella enterica
HLA-B*35:01 = test: as above; conditions: source organism: Salmonella enterica subsp. enterica serovar Typhimurium
HLA-B*44:02 = test: as above; conditions: source organism: Salmonella enterica
HLA-B*15:42 = test: IEDB peptide-MHC binding, purified MHC/competitive/fluorescence; filed as Kd, often an IC50 or EC50 that approximates it; ≥ and ≤ were set here for values at or beyond the usual limits of such assays
HLA-A*68:23 = test: as above; conditions: source organism: Yersinia pestis Nepal516
HLA-A*03:19 = test: as above; conditions: source organism: Yersinia pestis Nepal516
HLA-B*83:01 = test: as above
HLA-B*45:06 = test: as above
HLA-C*08:02 = test: IEDB peptide-MHC binding, purified MHC/direct/fluorescence; filed as Kd, often an IC50 or EC50 that approximates it; ≥ and ≤ were set here for values at or beyond the usual limits of such assays; conditions: source organism: Yersinia pestis Nepal516
HLA-C*06:02 = test: as above; conditions: source organism: Yersinia pestis Nepal516
HLA-C*12:03 = test: as above; conditions: source organism: Escherichia coli O157:H7 str. EDL933
HLA-A*32:07 = test: IEDB peptide-MHC binding, purified MHC/competitive/fluorescence; filed as Kd, often an IC50 or EC50 that approximates it; ≥ and ≤ were set here for values at or beyond the usual limits of such assays; conditions: source organism: Homo sapiens
HLA-B*73:01 = test: IEDB peptide-MHC binding, purified MHC/direct/fluorescence; filed as Kd, often an IC50 or EC50 that approximates it; ≥ and ≤ were set here for values at or beyond the usual limits of such assays; conditions: source organism: Homo sapiens
[3] = source organism: Influenza B virus (B/Beijing/184/93)
[4] = source organism: Influenza A virus (A/quail/Hong Kong/FY298/00(H9N2))
[5] = source organism: Salmonella enterica
[6] = source organism: Salmonella enterica subsp. enterica serovar Typhimurium
[7] = source organism: Yersinia pestis Nepal516
[8] = source organism: Yersinia pestis
[9] = source organism: Escherichia coli O157:H7 str. EC869
[10] = source organism: Escherichia coli O157:H7

Sequence: TKDAERGKL
- Kd (HLA-B*08:01; [3]): ≥ 20 µM
- Kd (HLA-B*08:02): ≥ 20 µM
- Kd (HLA-B*15:01; [4]): ≥ 20 µM
- Kd (HLA-B*39:01; [4]): ≥ 20 µM
- Kd (HLA-B*48:01; [4]): ≥ 20 µM
- Kd (HLA-B*15:09; [3]): ≥ 10 µM
- Kd (HLA-A*26:03; [3]): ≥ 20 µM
- Kd (HLA-A*02:01; [4]): ≥ 20 µM
- Kd (HLA-B*07:02; [4]): ≥ 20 µM
- Kd (HLA-B*27:05; [4]): ≥ 20 µM
- Kd (HLA-B*46:01; [4]): ≥ 20 µM
- Kd (HLA-B*57:01; [4]): ≥ 20 µM
- Kd (HLA-B*15:17; [4]): ≥ 20 µM
- Kd (HLA-B*40:01; [4]): ≥ 20 µM
- Kd (HLA-A*69:01; [4]): ≥ 20 µM
- Kd (HLA-B*58:01; [4]): ≥ 20 µM
- Kd (HLA-A*03:01; [4]): ≥ 20 µM
- Kd (HLA-A*26:02; [3]): ≥ 20 µM
- Kd (HLA-A*01:01; [4]): ≥ 20 µM
- Kd (HLA-A*68:02; [4]): ≥ 20 µM
- Kd (HLA-B*18:01): ≥ 20 µM

Sequence: ILQDRIRMY
- Kd (HLA-A*26:01 [1]): ≥ 20 µM
- Kd (HLA-A*30:01; source organism: Variola virus): ≥ 20 µM
- Kd (HLA-B*08:01; source organism: Variola virus): ≥ 20 µM
- Kd (HLA-B*15:01; source organism: Cowpox virus): 0.126 µM
- Kd (HLA-B*48:01; source organism: Cowpox virus): ≥ 20 µM
- Kd (HLA-B*15:09; source organism: Variola virus): ≥ 20 µM
- Kd (HLA-A*26:03; source organism: Variola virus): ≥ 20 µM
- Kd (HLA-A*02:01; source organism: Cowpox virus): ≥ 20 µM
- Kd (HLA-B*07:02; source organism: Cowpox virus): ≥ 20 µM
- Kd (HLA-B*27:05; source organism: Cowpox virus): ≥ 20 µM
- Kd (HLA-A*31:01; source organism: Cowpox virus): ≥ 20 µM
- Kd (HLA-B*46:01; source organism: Cowpox virus): ≥ 20 µM
- Kd (HLA-B*57:01; source organism: Cowpox virus): ≥ 20 µM
- Kd (HLA-B*15:17; source organism: Cowpox virus): 0.737 µM
- Kd (HLA-B*15:02; source organism: Variola virus): 0.02 µM
- Kd (HLA-A*69:01; source organism: Cowpox virus): ≥ 20 µM
- Kd (HLA-B*58:01; source organism: Cowpox virus): ≥ 20 µM
- Kd (HLA-A*01:01; source organism: Cowpox virus): ≥ 20 µM
- Kd (HLA-B*08:03; source organism: Variola virus): ≥ 20 µM
- Kd (HLA-A*68:02; source organism: Cowpox virus): ≥ 20 µM
- Kd (HLA-A*11:01; source organism: Cowpox virus): ≥ 20 µM

Sequence: MQQSGDEAF
- Kd (HLA-B*08:01; [5]): ≥ 20 µM
- Kd (HLA-A*26:01 [2]): ≥ 20 µM
- Kd (HLA-B*15:01; [6]): 0.2 µM
- Kd (HLA-B*35:01): 0.147 µM
- Kd (HLA-B*44:02): ≥ 20 µM
- Kd (HLA-A*02:01; [5]): ≥ 20 µM
- Kd (HLA-B*07:02; [5]): ≥ 20 µM
- Kd (HLA-B*27:05; [5]): ≥ 20 µM
- Kd (HLA-A*31:01; [5]): ≥ 20 µM
- Kd (HLA-B*46:01; [5]): ≥ 20 µM
- Kd (HLA-B*15:02; source organism: Salmonella enterica subsp. enterica serovar Typhimurium str. LT2): 0.032 µM
- Kd (HLA-B*40:01; [6]): 1.01 µM
- Kd (HLA-A*69:01; [5]): ≥ 20 µM
- Kd (HLA-B*58:01; [5]): ≥ 20 µM
- Kd (HLA-A*03:01; [5]): ≥ 20 µM
- Kd (HLA-A*01:01; [5]): ≥ 20 µM
- Kd (HLA-A*11:01; [5]): ≥ 20 µM

Sequence: TVYPKTHYV
- Kd (HLA-B*15:42; [7]): ≥ 5 µM
- Kd (HLA-A*68:23): ≤ 0.0001 µM
- Kd (HLA-A*03:19): 0.201 µM
- Kd (HLA-B*83:01; [7]): ≥ 5 µM
- Kd (HLA-B*45:06; [7]): ≥ 5 µM
- Kd (HLA-C*08:02): ≥ 20 µM
- Kd (HLA-B*15:01; [8]): 2.01 µM
- Kd (HLA-A*02:01; [8]): 0.0415 µM
- Kd (HLA-A*31:01; [8]): 0.178 µM
- Kd (HLA-C*06:02): 0.035 µM
- Kd (HLA-A*69:01; [8]): 0.0114 µM
- Kd (HLA-B*58:01; [8]): 3.63 µM
- Kd (HLA-A*03:01; [8]): 4.18 µM
- Kd (HLA-A*11:01; [8]): 0.048 µM

- Kd (HLA-A*30:01; source organism: Escherichia coli O157:H7 str. EDL933): ≥ 20 µM
- Kd (HLA-B*08:01; [9]): ≥ 20 µM
- Kd (HLA-B*15:01; [10]): 0.01 µM
- Kd (HLA-B*39:01; [9]): ≥ 20 µM
- Kd (HLA-B*48:01; [10]): ≥ 20 µM
- Kd (HLA-B*15:09; [9]): ≥ 20 µM
- Kd (HLA-C*12:03): 0.204 µM
- Kd (HLA-A*02:01; [10]): ≥ 20 µM
- Kd (HLA-B*07:02; [10]): ≥ 20 µM
- Kd (HLA-B*27:05; [10]): ≥ 20 µM
- Kd (HLA-A*31:01; [10]): ≥ 20 µM
- Kd (HLA-B*46:01; [10]): ≥ 20 µM
- Kd (HLA-B*57:01; [10]): ≥ 20 µM
- Kd (HLA-B*15:17; [10]): ≥ 20 µM
- Kd (HLA-B*15:02; [10]): ≥ 20 µM
- Kd (HLA-A*69:01; [10]): ≥ 20 µM
- Kd (HLA-B*58:01; [10]): ≥ 20 µM
- Kd (HLA-A*03:01; [10]): ≥ 20 µM
- Kd (HLA-A*26:02; [9]): ≥ 20 µM
- Kd (HLA-A*01:01; [10]): ≥ 20 µM
- Kd (HLA-B*08:03; [9]): ≥ 20 µM
- Kd (HLA-A*68:02; [10]): ≥ 20 µM
- Kd (HLA-A*11:01; [10]): ≥ 20 µM
Sequence: YQAFRTKVH

- Kd (HLA-B*15:42; source organism: Homo sapiens): ≥ 5 µM
- Kd (HLA-A*32:07): 3.39 µM
- Kd (HLA-B*83:01; source organism: Homo sapiens): ≥ 5 µM
- Kd (HLA-B*45:06; source organism: Homo sapiens): ≥ 5 µM
- Kd (HLA-B*73:01): ≥ 20 µM
Sequence: MAWLFFWAI
